Legend:
[1] = biological target: T1, VraS sensor histidine kinase (GST-VraS) (Staphylococcus aureus, UniProt Q99SZ7); assay: PK/LDH-coupled ATPase (autophosphorylation) assay, NADH absorbance at […] nm; Michaelis-Menten inhibition kinetics; format: biochemical
T1 construct: GST-tagged intracellular domain, amino acids 85 to 347 (DHp and CAT)

[2] = tested on: Nc1ncnc2c1ncn2[C@@H]1O[C@H](COP(=O)(O)OP(=O)(O)OP(=O)(O)O)[C@@H](O)[C@H]1O; assay: PK/LDH-coupled ATPase assay, Michaelis-Menten kinetics (KM of ATP); format: biochemical, Staphylococcus aureus; settings: Mg2+ catalytic domain (CAT) that binds ATP

| IC50 [1] [µM] | Compound | Km [2] [µM] | Vmax [2] [µmol/min] | kcat [2] [s⁻¹] | kcat/Km [2] [M⁻¹ s⁻¹] |
| --- | --- | --- | --- | --- | --- |
| 41 ± 5 | CCCCCCCCCCCCCCCC[n+]1ccn(Cc2ccccc2)c1C [NH125] | – | – | – | – |
| – | VraS sensor histidine kinase (GST-VraS) (Staphylococcus aureus subsp. aureus N315) | 6.7 ± 1.6 | 0.000108 | 0.0169 ± 0.0056 | 2600 ± 600 |

Source: publication PMC10269531, “NH125 Sensitizes Staphylococcus aureus to Cell Wall-Targeting Antibiotics through the Inhibition of the VraS Sensor Histidine Kinase” (Microbiology Spectrum, 2023)
